± gives the standard deviation.
Assay: protein stability index of a GFP-peptide fusion (GPS, HEK-293T) (PSI 1-6); higher = more stable
[1] = treatment: DMSO, c terminus: a fixed tail appended
[2] = treatment: MLN4924 1 uM, 8 h, c terminus: a fixed tail appended
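Note: 24-mer peptide tiles fused after GFP, lentivirally expressed, FACS-sorted into six equal bins by GFP/DsRed ratio, decoded by Illumina sequencing, PSI is the read-weighted mean bin number.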

Row | Sequence | protein stability index [1] | protein stability index [2] | protein stability index (treatment: DMSO, c terminus: native) | protein stability index (treatment: MLN4924 1 uM, 8 h, c terminus: native)
1 | PPAQGRVSRRLSPRKVSTCTDHEL [TRIM9] | 5.031 ± 0.046 | 4.87 ± 0.35 | – | –
2 | EILGCPLPDPNNYYHRRNEMTTTD [CPXM2] | 3.24 ± 0.21 | 3.54 ± 0.56 | – | –
3 | TVNTHYFSIDEELVYENFYADFGP [CDC14A] | 2.37 ± 0.28 | 2.67 ± 0.4 | – | –
4 | ASKCKGAAVKLADFGLAIEVQGDQ [CAMK2B] | 3.5 ± 0.28 | 3.6 ± 0.37 | – | –
5 | DLMETTQYMNEGELRVLADTYDSV [HDAC6] | 2.69 ± 0.52 | 3.58 ± 0.51 | – | –
6 | VVDIFQTVKMLRTQRPAMVQTEDQ [PTPRD] | 3.23 ± 0.32 | 3.06 ± 0.27 | – | –
7 | MDALQLANSAFAVDLFKQLCEKEP [SERPINB5] | 3.5 ± 0.36 | 3.53 ± 0.16 | – | –
8 | CRSKTLGYQHVDLQNFSSSWSDGM [SMTNL2] | 2.47 ± 0.079 | 2.41 ± 0.27 | – | –
9 | FLVRLLMAMAVMLYYSNFVLALEE [MFSD9] | 2.85 ± 0.14 | 3.02 ± 0.21 | – | –
10 | DGGALLGVLQYRGAELHLQPLEGG [ADAMTS4] | 2.06 ± 0.94 | 2.52 ± 0.73 | – | –
11 | QETAEFFLSLDIPIGELYGLSESS [ACSBG2] | 2.61 ± 0.37 | 2.47 ± 0.41 | – | –
12 | KCGDLECEALINRVSAMRDYRGPD [MIA2] | 3.25 ± 0.63 | 3.21 ± 0.076 | – | –
13 | NQHDTEMKYYIVHLKRHFMFRNHL [DYRK1B] | 2.45 ± 0.23 | 2.3 ± 0.15 | – | –
14 | SFTSSDKTIKSFFPHSGKDCLLCF [C8orf76] | 2.47 ± 0.51 | 1.9 ± 0.44 | – | –
15 | APDFVGDILWEHLEQMIKENQEKT [ETS2] | 4.44 ± 0.13 | 4.58 ± 0.14 | – | –
16 | VSPGVLVLLAVLPVLLLQITVGLV [MOG] | 2.92 ± 0.39 | 2.96 ± 0.51 | – | –
17 | FQQPAPEYHQPQAPANVAKIQLRL [LOXL2] | 2.81 ± 0.23 | 3.08 ± 0.28 | – | –
18 | VGGKIVGSLCAIAGVLTIALPVPV [KCNA4] | 3.78 ± 0.78 | 2.76 ± 0.46 | – | –
19 | AGTAGHPPSGSQPLTSTQGLEHAA [FBF1] | 4.84 ± 0.11 | 4.89 ± 0.35 | – | –
20 | AGPGGGAERRRAGRLLLTLPLLRQ [ESRRA] | 2.53 ± 0.29 | 2.84 ± 0.21 | – | –
21 | NFFNQVLMLGKTSISDLSEHVFDL [PDS5B] | 2.56 ± 0.54 | 2.63 ± 0.32 | – | –
22 | DLVAMQWADAAGEAVPEGPDGGGP [ZSWIM9] | 4.99 ± 0.33 | 5.17 ± 0.12 | – | –

Row | Sequence | protein stability index [1] | protein stability index [2] | protein stability index (treatment: DMSO, c terminus: native) | protein stability index (treatment: MLN4924 1 uM, 8 h, c terminus: native)
23 | LRQQQHKQNKQVLGYCLLLMLAGM [DNAJC4] | 2.28 ± 0.48 | 2.41 ± 0.18 | – | –
24 | RELRKPEEPENGEPTAAATARRSK [PWWP2B] | 5.54 ± 0.16 | 5.51 ± 0.35 | – | –
25 | HLEKKGPQVRDWSHYFKIIEDLRA [KRT18] | 2.41 ± 0.13 | 2.69 ± 0.14 | – | –
26 | RYQHGIAVIGNFLYVVGGQSNYDT [KLHL13] | 2.42 ± 0.49 | 2.44 ± 0.5 | – | –
27 | ERKNAEMYKLSSEQFHEAASKMES [CHCHD6] | 4.83 ± 0.27 | 5.08 ± 0.16 | – | –
28 | IACYVMKHYRFTHAEIIAWIRICR [CDC14A] | 2.37 ± 0.72 | 2.24 ± 0.53 | – | –
29 | EGAIVMARGRHVGSSETNLLQHLL [PYCR3] | 3.25 ± 0.78 | 3.18 ± 0.08 | – | –
30 | RLFPYSQYYRWLNYGGVIKNYFQH [PRIM1] | 2.15 ± 0.75 | 2.22 ± 0.52 | – | –
31 | LRLLVESDINSIRRILDELTLCKS [KRT34] | 2.22 ± 0.5 | 2.16 ± 0.12 | – | –
32 | LIYGSMEMFPAAQQLYRHGKAYRF [JAGN1] | 2.28 ± 0.36 | 2.21 ± 0.093 | – | –
33 | LLEKVPCTLEQDHFKKQTIYRFLK [FEM1C] | 2.38 ± 0.83 | 2.31 ± 0.23 | – | –
34 | VAAGVLCELAQDKEAAEAIEAEGA [CTNNB1] | 5.31 ± 0.12 | 5.44 ± 0.12 | – | –
35 | GIAQVKIQGQNKEMLAAACQMFLG [FLOT1] | 2.34 ± 0.12 | 2.69 ± 0.1 | – | –
36 | QQYRQDQRDGSKSEDELDQASTPT [CCND2] | 5.45 ± 0.2 | 5.39 ± 0.12 | – | –
37 | EVGMVKCGSRRERCGYRLVRRQRS [ESR2] | 3.19 ± 0.35 | 3.27 ± 0.43 | – | –
38 | MTVEEIYKDRQKFSEQVFKVASSD [FLOT1] | 3.83 ± 0.21 | 3.61 ± 0.31 | – | –
39 | KGKKLYPVVSAVWGHCEIRMRYLN [SPSB1] | 2.23 ± 0.35 | 2.26 ± 0.23 | – | –
40 | YPEQSKGFHKAGSMLPPVNFSIVP [SPATS1] | 2.65 ± 0.5 | 3.06 ± 0.69 | – | –
41 | VQKRARSGPQPRLPPCLLPLSPPT [TRIB3] | 3.35 ± 0.2 | 3.46 ± 0.23 | – | –
42 | REESLPNLLQYVRMPLLTPRYITD [KLHL12] | 2.8 ± 0.38 | 2.63 ± 0.34 | – | –
43 | RKMEVEELSPLALGRFSLTPAEGD [CDC25B] | 4.66 ± 0.36 | 4.79 ± 0.13 | – | –
44 | LGIHEDSTNRRRLSELLRYHTSQS [HSP90AB1] | 3.5 ± 0.22 | 3.71 ± 0.24 | – | –

Row | Sequence | protein stability index [1] | protein stability index [2] | protein stability index (treatment: DMSO, c terminus: native) | protein stability index (treatment: MLN4924 1 uM, 8 h, c terminus: native)
45 | GTAPLNQETAEFFLSLDIPIGELY [ACSBG2] | 1.89 ± 0.26 | 2.32 ± 0.26 | – | –
46 | FTFLRPLSVQQPTALALEPDAIRS [PCDHGC5] | 2.89 ± 0.3 | 3.03 ± 0.31 | – | –
47 | VGRGEVVTVRVPTHEEGSYLFWEF [ACBD3] | 2.64 ± 0.44 | 2.34 ± 0.26 | – | –
48 | RPPLRRVRMSADAMLKALLGSKHK [TNNI2] | 3.01 ± 0.28 | 3.21 ± 0.29 | – | –
49 | IPGLPGLRGLPGERGTPGLPGPKG [SCARA5] | 4.34 ± 0.41 | 4.42 ± 0.22 | – | –
50 | FESFPAGSTLIFYKYCDHENAAFK [TOR1AIP2] | 2.17 ± 0.14 | 2.17 ± 0.23 | – | –
51 | SSAGGAKAGQPESRALALFDIQKI [ZNF8] | 3.99 ± 0.52 | 4.26 ± 0.26 | – | –
52 | AFYDVTGGMSHLHTFRATFQEPLY [TRIM14] | 2.31 ± 0.25 | 2.41 ± 0.5 | – | –
53 | SVYAWGGGLGTPLRLPMLNTEVVQ [NEK8] | 2.63 ± 0.39 | 2.69 ± 0.32 | – | –
54 | QPNTYADFEFLAFWQTQYNNMNAV [PKD2L1] | 2.21 ± 0.4 | 2.03 ± 0.24 | – | –
55 | LVSQSNDLSSLRAKYPHDVVNHLS [SPACA9] | 3.09 ± 0.19 | 3.19 ± 0.21 | – | –
56 | LYIQSHYQLELQCCIDWTHVTDPL [SMG5] | 3.31 ± 0.46 | 3.06 ± 0.42 | – | –
57 | PGMPPPVPRPGIPPMTQAQAVSAP [ZNF207] | 4.94 ± 0.15 | 4.86 ± 0.19 | – | –
58 | RHMREENLRLQRKLQREMERREAL [CCDC6] | 3.96 ± 0.36 | 4.39 ± 0.15 | – | –
59 | AEKSGEATDGARPQALPEPMQESK [CHGA] | 5.47 ± 0.3 | 5.48 ± 0.22 | – | –
60 | QEILLAHRRFCELLPQEQRSVESS [CIB1] | 4.16 ± 0.15 | 4.32 ± 0.11 | – | –
61 | IKNDKYGPWLEWEIMLQYCFPRLD [PRIM1] | – | 3 ± 1 | – | –
62 | ERLTAPEILLHPWFESVLEPGYID [TRIB1] | 3.26 ± 0.21 | 3.3 ± 0.3 | – | –
63 | DNAVQGLRRHEILQWVLQTDSQQ [LRRC59] | – | – | 3.37 ± 0.2 | 3.44 ± 0.24
64 | MAHGYGEESEEERGLEPGKGRHHR [CHGB] | 5.22 ± 0.27 | 5.34 ± 0.11 | – | –
65 | PQALATRALPCPAHVVFRYQGVRM [FCHSD1] | 2.69 ± 0.2 | 2.69 ± 0.22 | – | –

Reference: the supplement of paper PMC10567573
